Publication PMC6547681, “Structures of BCL-2 in complex with venetoclax reveal the molecular basis of resistance mutations” (Nature Communications, 2019)

Tests used:
venetoclax = experiment: steady-state competition SPR; details: BIMBH3 peptide immobilised on chip; BCL-2 analyte pre-combined with venetoclax at 0, 20, 40, 60 nM
BIMBH3 peptide = experiment: SPR; direct binding; biotinylated BIMBH3 or BAXBH3 peptide immobilised on SA sensor chip, BCL-2 (0-63 nM) as analyte; HBS-EP (10 mM hepes pH 7.4, 150 mM sodium chloride, 3.4 mM EDTA, 0.005% tween 20, optionally 1 mM TCEP for BAXBH3), 25 °C; BIAcore 4000 or S200; 1:1 binding site kinetic model; BIMBH3-4A reference surface
BIMBH3 peptide, sequence (O43521 141-166): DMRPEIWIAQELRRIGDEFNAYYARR

S55746 = experiment: steady-state competition SPR; details: BIMBH3 peptide immobilised on chip; BCL-2 analyte pre-combined with S55746 at 0, 20, 40, 60 nM
BAXBH3 peptide = experiment: SPR; direct binding; biotinylated BIMBH3 or BAXBH3 peptide immobilised on SA sensor chip, BCL-2 (0-63 nM) as analyte; HBS-EP (10 mM hepes pH 7.4, 150 mM sodium chloride, 3.4 mM EDTA, 0.005% tween 20, optionally 1 mM TCEP for BAXBH3), 25 °C; BIAcore 4000 or S200; 1:1 binding site kinetic model; BIMBH3-4A reference surface
BAXBH3 peptide, sequence (Q07812 other isoform, or with tags, fused parts or gaps): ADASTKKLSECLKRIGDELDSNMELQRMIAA

Substance | Ki (venetoclax) | Kd (BIMBH3 peptide) | Ki (S55746) | Kd (BAXBH3 peptide)
BCL-2 WT (from UniProt P10415) E152A | 0.027 nM |  |  | 
BCL-2 G101A (from UniProt P10415 1-239) (natural protein) |  | 0.23 nM |  | 
BCL-2 WT (from UniProt P10415) G101V; E152A | 0.002 nM |  | 5.3 nM | 
BCL-2 WT (from UniProt P10415) F104C | 25.1 nM |  |  | 
BCL-2 E152A (from UniProt P10415 1-239) (natural protein) |  | 0.36 nM |  | 3.6 nM
BCL-2 F104C (from UniProt P10415 1-239) (natural protein) |  | 0.17 nM |  | 4 nM
BCL-2 G101V/E152A double mutant (from UniProt P10415 1-239) (natural protein) |  | 0.63 nM |  | 5.5 nM
BCL-2 WT (from UniProt P10415) G101A | 0.11 nM |  |  | 
BCL-2 WT (from UniProt P10415) G101V |  |  | 36 nM | 
